The source of these data is PMC11602160, “Modulation of UPF1 catalytic activity upon interaction of SARS-CoV-2 Nucleocapsid protein with factors involved in nonsense mediated-mRNA decay”.

The target of data set [1] is T1, UPF1 (CH-helicase core) (Homo sapiens, UniProt Q92900 115-352+364-925, internal_change).
T1 sequence: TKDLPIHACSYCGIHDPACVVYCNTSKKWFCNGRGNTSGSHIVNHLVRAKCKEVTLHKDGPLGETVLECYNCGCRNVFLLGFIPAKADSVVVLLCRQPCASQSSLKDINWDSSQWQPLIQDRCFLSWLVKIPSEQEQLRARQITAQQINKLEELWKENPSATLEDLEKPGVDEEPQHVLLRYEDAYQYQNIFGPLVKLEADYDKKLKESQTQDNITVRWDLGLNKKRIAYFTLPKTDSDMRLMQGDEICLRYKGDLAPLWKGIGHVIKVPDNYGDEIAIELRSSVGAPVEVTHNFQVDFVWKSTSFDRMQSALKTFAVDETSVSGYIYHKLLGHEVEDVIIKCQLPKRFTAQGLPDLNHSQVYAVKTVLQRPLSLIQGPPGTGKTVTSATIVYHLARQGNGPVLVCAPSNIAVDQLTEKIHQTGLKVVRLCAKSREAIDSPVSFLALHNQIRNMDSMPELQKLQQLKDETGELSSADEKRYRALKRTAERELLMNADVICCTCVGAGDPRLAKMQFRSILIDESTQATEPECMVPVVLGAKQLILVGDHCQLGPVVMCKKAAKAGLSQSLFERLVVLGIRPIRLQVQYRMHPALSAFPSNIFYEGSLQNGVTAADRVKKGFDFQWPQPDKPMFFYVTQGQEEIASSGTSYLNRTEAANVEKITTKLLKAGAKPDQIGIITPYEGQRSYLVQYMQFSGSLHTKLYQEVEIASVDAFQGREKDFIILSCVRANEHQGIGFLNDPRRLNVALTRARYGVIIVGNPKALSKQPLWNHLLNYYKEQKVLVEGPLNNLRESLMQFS
Briefly: fluorescence anisotropy; 1 mM Mg2+; Fluorescence anisotropy: 20 mM HEPES pH 7.5, 100 mM NaCl, 1 mM MgCl2, 100 µg/ml BSA, 5 nM RNA, 25 °C, 1 h; one-site fit with Hill slope. SEC conditions not in the material. The note with it: protein: recombinant; tags: His6 or His-GST fusion, cleavable (TEV/3C); label: 5' 6-FAM; single strand. On the technique in general: Polarisation of emitted light reports the rotation of a fluorescent probe.

The target of data set [2] is Nfl (Nucleocapsid full-length) (SARS-CoV-2, UniProt P0DTC9 1-419). The description is as above. The note with it: protein: recombinant; tags: His6 or His-GST fusion, cleavable (TEV/3C); chain copies: 2; label: 5' 6-FAM; single strand.

On to UUUUUUUUUUUU (ssRNA) [U12 (12-mer poly-U RNA)], for which the dissociation constant Kd (commonly the free concentration of one partner at which half of the binding sites on the other are occupied at equilibrium, for simple one-to-one binding) was roughly 50 nM in data set [1] and 82 nM in data set [2].
